Experimental findings from patent US20240317847A1 (Bayer, published 2024) are described below.

Assay [1] concerns the target T1, murine IL-11 (mouse, UniProt P47873 22-199).
T1 construct: Invigate, e.g. lot #C210819-09; biotinylated where coated in the ELISA; also called mIL-11; mIL11
T1 sequence: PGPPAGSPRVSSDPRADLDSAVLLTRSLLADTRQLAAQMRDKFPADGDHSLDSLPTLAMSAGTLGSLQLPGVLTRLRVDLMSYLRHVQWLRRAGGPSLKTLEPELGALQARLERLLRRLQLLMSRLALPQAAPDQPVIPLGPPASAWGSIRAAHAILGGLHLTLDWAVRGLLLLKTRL
Put plainly: SPR, antibody captured, IL-11 as analyte. For orientation: In SPR one partner is held on a chip, and binding of the other changes the refractive index at the surface.

Another assay addresses T2, rat IL-11 (rat, UniProt Q99MF5 22-199).
T2 construct: Invigate, e.g. lot #C301019-19; also called rIL11
T2 sequence: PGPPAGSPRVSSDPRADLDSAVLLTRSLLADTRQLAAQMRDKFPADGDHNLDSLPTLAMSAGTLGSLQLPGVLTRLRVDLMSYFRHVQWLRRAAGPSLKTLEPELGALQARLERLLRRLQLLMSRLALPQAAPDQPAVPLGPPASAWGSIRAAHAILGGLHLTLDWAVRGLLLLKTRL
Put plainly: SPR, antibody captured, IL-11 as analyte.

In assay [2] the target is T3, human IL-11 (human, UniProt P20809 22-199).
T3 construct: Invigate, e.g. lot #C121021-19; biotinylated where coated in the ELISA; also called hIL-11; hIL11
T3 sequence: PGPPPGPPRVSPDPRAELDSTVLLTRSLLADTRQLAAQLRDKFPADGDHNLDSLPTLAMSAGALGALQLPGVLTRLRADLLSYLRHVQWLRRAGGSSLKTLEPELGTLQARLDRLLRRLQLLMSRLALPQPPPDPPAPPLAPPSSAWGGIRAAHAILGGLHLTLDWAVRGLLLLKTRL
Put plainly: SPR, antibody captured, IL-11 as analyte.

A further assay concerns the target T4, cynomolgus IL-11 (cynomolgus, UniProt P20808 22-199).
T4 construct: Invigate, lot #C290621-19; also called cIL11; cynoL-11
T4 sequence: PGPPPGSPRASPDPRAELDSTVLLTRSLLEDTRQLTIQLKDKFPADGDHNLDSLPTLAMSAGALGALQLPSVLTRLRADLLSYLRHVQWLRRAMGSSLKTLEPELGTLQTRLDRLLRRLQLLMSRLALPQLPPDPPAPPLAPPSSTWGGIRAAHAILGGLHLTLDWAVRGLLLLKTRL
Put plainly: SPR, antibody captured, IL-11 as analyte.

Assay [3] addresses T1, murine IL-11. Put plainly: cell-based or functional assay.
Assay [4] has as its target T3, human IL-11. Put plainly: cell-based or functional assay.

B1: TPP-29392 (antibody, human IgG1, V domains shown)
VH: EVQLLESGGGLVQPGGSLRLSCAASGFTFSSYGMHWVRQAPGKGLEWVAVISYDGSYKYYADSVKGRFTISRDNSKNTLYLQMNSLRAEDTAVYYCAAGVPDYWGQGTLVTVSS
VL: QSVLTQPPSASGTPGQRVTISCSGSSSNIWSDYDVHWYQQLPGTAPKLLIYSNEERPSGVPDRFSGSKSGTSASLAISGLRSEDEADYYCAAWDSSLSGPVFGGGTKLTVL
B1: the dissociation constant (Kd) was found to be 1.1 nM in the assay with murine IL-11 [1], 0.95 nM with rat IL-11, 0.92 nM in the assay with human IL-11 [2] and 0.85 nM with cynomolgus IL-11. Further, the “RGA Efficacy (%)” value came to 89.3% with murine IL-11 [3] and 80.2% in the assay with human IL-11 [4]. Also, the “RGA IC50” value with human IL-11 [4] worked out at 1.2 nM.

B2: TPP-29402 (antibody, human IgG1, V domains shown)
VH: EVQLLESGGGLVQPGGSLRLSCAASGFTFSSYGGHWVRQAPGKGLEWVALISYDGSYKYYADSVKGRFTISRDNSKNTLYLQMNSLRAEDTAVYYCAAGVPDYWGQGTLVTVSS
VL: QSVLTQPPSASGTPGQRVTISCSGSSSNIGSGLDVHWYQQLPGTAPKLLIYSNEERPSGVPDRFSGSKSGTSASLAISGLRSEDEADYYCAAWDSSLYGPVFGGGTKLTVL
Turning to B2, the Kd came to 0.045 nM with murine IL-11 [1], 0.018 nM in the assay with rat IL-11, 0.19 nM in the assay with human IL-11 [2] and 0.32 nM in the assay with cynomolgus IL-11. Also, the “RGA Efficacy (%)” value was found to be 95.5% with murine IL-11 [3] and 80.7% with human IL-11 [4]. The “RGA IC50” value came out at 0.19 nM with murine IL-11 [3] and 0.53 nM in the assay with human IL-11 [4].

B3: TPP-29400 (antibody, human IgG1, V domains shown)
VH: EVQLLESGGGLVQPGGSLRLSCAASGFTFSSYGGHWVRQAPGKGLEWVALISYDGSYKYYADSVKGRFTISRDNSKNTLYLQMNSLRAEDTAVYYCAAGVPDYWGQGTLVTVSS
VL: QSVLTQPPSASGTPGQRVTISCSGSSSNIGSDYDVHWYQQLPGTAPKLLIYSNNERPSGVPDRFSGSKSGTSASLAISGLRSEDEADYYCAAWDFSLSGPVFGGGTKLTVL
Take B3: the Kd was 0.96 nM with murine IL-11 [1], 0.75 nM with rat IL-11, 0.5 nM with human IL-11 [2] and 0.35 nM with cynomolgus IL-11. Further, the “RGA Efficacy (%)” value in the assay with murine IL-11 [3] was 87.3%; with human IL-11 [4], 59.6%. Also, the “RGA IC50” value with human IL-11 [4] was found to be 0.46 nM.

B4: TPP-29403 (antibody, human IgG1, V domains shown)
VH: EVQLLESGGGLVQPGGSLRLSCAASGFTFSSYGGHWVRQAPGKGLEWVALISYDGSYKYYADSVKGRFTISRDNSKNTLYLQMNSLRAEDTAVYYCAAGVPDYWGQGTLVTVSS
VL: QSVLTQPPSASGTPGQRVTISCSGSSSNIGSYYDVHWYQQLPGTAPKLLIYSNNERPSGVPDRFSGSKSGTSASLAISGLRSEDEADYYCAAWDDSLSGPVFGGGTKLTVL
Take B4: the dissociation constant (Kd) with murine IL-11 [1] worked out at 0.18 nM; with rat IL-11 it was 0.11 nM; with human IL-11 [2], 0.77 nM; in the assay with cynomolgus IL-11 it was 0.26 nM. Also, the “RGA Efficacy (%)” value with murine IL-11 [3] worked out at 94.3%; in the assay with human IL-11 [4], 82.4%. The “RGA IC50” value with murine IL-11 [3] is 0.27 nM; with human IL-11 [4], 1.7 nM.

B5: TPP-29401 (antibody, human IgG1, V domains shown)
VH: EVQLLESGGGLVQPGGSLRLSCAASGFTFSSYGGHWVRQAPGKGLEWVAVISYDGSYKYYADSVKGRFTISRDNSKNTLYLQMNSLRAEDTAVYYCAAGVPDYWGQGTLVTVSS
VL: QSVLTQPPSASGTPGQRVTISCSGSSSNIGSYYDVHWYQQLPGTAPKLLIYSNEERPSGVPDRFSGSKSGTSASLAISGLRSEDEADYYCAAWDDSLSGPVFGGGTKLTVL
For the molecule B5, the Kd was 0.11 nM in the assay with murine IL-11 [1], 0.058 nM with rat IL-11, 0.69 nM with human IL-11 [2] and 0.23 nM in the assay with cynomolgus IL-11. Besides, the “RGA Efficacy (%)” value with murine IL-11 [3] stood at 96.9%; in the assay with human IL-11 [4] it was 83.3%. Moreover, the “RGA IC50” value with murine IL-11 [3] amounted to 0.15 nM; with human IL-11 [4], 1.3 nM.

B6: TPP-29397 (antibody, human IgG1, V domains shown)
VH: EVQLLESGGGLVQPGGSLRLSCAASGFTFSSYGMHWVRQAPGKGLEWVAVISYDGSYKYYADSVKGRFTISRDNSKNTLYLQMNSLRAEDTAVYYCAAGVPDYWGQGTLVTVSS
VL: QSVLTQPPSASGTPGQRVTISCSGSSSNIWSGYDVHWYQQLPGTAPKLLIYSNEERPSGVPDRFSGSKSGTSASLAISGLRSEDEADYYCAAWDSSLYGPVFGGGTKLTVL
For B6, the Kd in the assay with murine IL-11 [1] worked out at 0.11 nM; with rat IL-11, 0.057 nM; in the assay with human IL-11 [2], 0.35 nM; with cynomolgus IL-11 it was 0.8 nM. Besides, the “RGA Efficacy (%)” value with murine IL-11 [3] came to 93.8%; with human IL-11 [4], 71%. The figures for the “RGA IC50” value in the assay with murine IL-11 [3] and in the assay with human IL-11 [4] were 0.31 nM and 0.53 nM, respectively.

B7: TPP-29399 (antibody, human IgG1, V domains shown)
VH: EVQLLESGGGLVQPGGSLRLSCAASGFTFSSYGMHWVRQAPGKGLEWVAVISYDGSYKYYADSVKGRFTISRDNSKNTLYLQMNSLRAEDTAVYYCAAGVPDYWGQGTLVTVSS
VL: QSVLTQPPSASGTPGQRVTISCSGSSSNIGSDYDVHWYQQLPGTAPKLLIYSNNERPSGVPDRFSGSKSGTSASLAISGLRSEDEADYYCAAWDSSLSGPVFGGGTKLTVL
B7: the Kd with murine IL-11 [1] came to 0.93 nM; with rat IL-11, 0.53 nM; with human IL-11 [2], 0.56 nM; in the assay with cynomolgus IL-11, 0.57 nM. Moreover, the “RGA Efficacy (%)” value with murine IL-11 [3] came out at 90%; with human IL-11 [4] it was 70.2%. In addition, in the assay with human IL-11 [4], the “RGA IC50” value was 0.73 nM.

B8: TPP-29396 (antibody, human IgG1, V domains shown)
VH: EVQLLESGGGLVQPGGSLRLSCAASGFTFSSYGMHWVRQAPGKGLEWVAVISYDGSYKYYADSVKGRFTISRDNSKNTLYLQMNSLRAEDTAVYYCAAGVPDYWGQGTLVTVSS
VL: QSVLTQPPSASGTPGQRVTISCSGSSSNIWSDYDVHWYQQLPGTAPKLLIYSNEERPSGVPDRFSGSKSGTSASLAISGLRSEDEADYYCAAWDFSLYGPVFGGGTKLTVL
Consider B8, for which the dissociation constant (Kd) with murine IL-11 [1] is 0.7 nM; with rat IL-11 it was 0.44 nM; in the assay with human IL-11 [2], 0.78 nM; with cynomolgus IL-11 it was 0.92 nM. Further, the “RGA Efficacy (%)” value in the assay with murine IL-11 [3] was 96.1%; with human IL-11 [4], 78.9%. Also, the results for the “RGA IC50” value in the assay with murine IL-11 [3] and in the assay with human IL-11 [4] were 0.39 nM and 0.65 nM, respectively.

B9: TPP-29393 (antibody, human IgG1, V domains shown)
VH: EVQLLESGGGLVQPGGSLRLSCAASGFTFSSYGMHWVRQAPGKGLEWVAVISYDGSYKYYADSVKGRFTISRDNSKNTLYLQMNSLRAEDTAVYYCAAGVPDYWGQGTLVTVSS
VL: QSVLTQPPSASGTPGQRVTISCSGSSSNIGSDLDVHWYQQLPGTAPKLLIYSNEERPSGVPDRFSGSKSGTSASLAISGLRSEDEADYYCAAWDDSLYGPVFGGGTKLTVL
In the case of B9, the equilibrium dissociation constant (Kd) with murine IL-11 [1] stood at 0.39 nM; in the assay with rat IL-11 it was 0.18 nM; with human IL-11 [2], 0.66 nM; with cynomolgus IL-11, 0.72 nM. For the same molecule, the “RGA Efficacy (%)” value in the assay with murine IL-11 [3] turned out to be 96.2%; with human IL-11 [4], 87.3%. In addition, the “RGA IC50” value is 0.24 nM with murine IL-11 [3] and 0.61 nM in the assay with human IL-11 [4].

B10: TPP-29394 (antibody, human IgG1, V domains shown)
VH: EVQLLESGGGLVQPGGSLRLSCAASGFTFSSYGMHWVRQAPGKGLEWVAVISYDGSYKYYADSVKGRFTISRDNSKNTLYLQMNSLRAEDTAVYYCAAGVPDYWGQGTLVTVSS
VL: QSVLTQPPSASGTPGQRVTISCSGSSSNIGSDYDVHWYQQLPGTAPKLLIYSNNERPSGVPDRFSGSKSGTSASLAISGLRSEDEADYYCAAWDFSLYGPVFGGGTKLTVL
As for B10, the Kd was 0.65 nM with murine IL-11 [1], 0.37 nM with rat IL-11, 1.2 nM with human IL-11 [2] and 0.67 nM in the assay with cynomolgus IL-11. In addition, the “RGA Efficacy (%)” value stood at 93.9% in the assay with murine IL-11 [3] and 89.8% with human IL-11 [4]. Further, the results for the “RGA IC50” value with murine IL-11 [3] and in the assay with human IL-11 [4] were 0.48 nM and 1.7 nM, respectively.

B11: TPP-29404 (antibody, human IgG1, V domains shown)
VH: EVQLLESGGGLVQPGGSLRLSCAASGFTFSSYGGHWVRQAPGKGLEWVALISYDGSYKYYADSVKGRFTISRDNSKNTLYLQMNSLRAEDTAVYYCAAGVPDYWGQGTLVTVSS
VL: QSVLTQPPSASGTPGQRVTISCSGSSSNIGSYYDVHWYQQLPGTAPKLLIYSNNERPSGVPDRFSGSKSGTSASLAISGLRSEDEADYYCAAWDSSLSGPVFGGGTKLTVL
On to B11, for which the dissociation constant Kd stood at 0.091 nM in the assay with murine IL-11 [1], 0.067 nM with rat IL-11, 0.2 nM in the assay with human IL-11 [2] and 0.14 nM in the assay with cynomolgus IL-11. Moreover, the “RGA Efficacy (%)” value in the assay with murine IL-11 [3] came to 91.8%; with human IL-11 [4] it was 71.8%. The “RGA IC50” value with murine IL-11 [3] was found to be 0.19 nM; with human IL-11 [4], 0.72 nM.

Usually Kd stands for the equilibrium constant for the complex coming apart. Read a low Kd as higher affinity.
